The source of these data is the supplement of paper PMC5998384.

In data set [1] the test system is HeLa Kyoto. The data set is described as follows: melting temperature (median over replicates), in situ; higher = more thermally stable.
Data set [2] has as its system HeLa Kyoto. The data set is described as follows: solubility in G1/S (NP-40 vs SDS abundance) (log2 ratio); higher = more soluble. The conditions noted are these: cell cycle stage: G1/S.
In data set [3] the test system is HeLa Kyoto. As to the kind of experiment: thermal stability score vs G1/S (z-score of summed log2 fold changes over temperatures); higher = more thermally stable than in G1/S.
Data set [4] deals with HeLa Kyoto. As to the kind of experiment: solubility change mitosis vs G1/S (difference of NP-40 vs SDS log2 ratios) (log2 ratio difference); higher = more soluble in mitosis.
Where [5] appears, read: cell cycle stage: early G1 (4.5 h after nocodazole release).
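Throughout, for melting temperature (median over replicates), in situ: HeLa Kyoto cells synchronized by double thymidine or nocodazole block, proteins quantified by TMT10plex mass spectrometry, three independent biological replicates.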
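Throughout, for solubility change mitosis vs G1/S (difference of NP-40 vs SDS log2 ratios): synchronized HeLa Kyoto cells (double thymidine block for G1/S, nocodazole release for mitosis), protein amounts in NP-40 versus SDS lysates quantified by mass spectrometry, three biological replicates.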
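Throughout, for solubility in G1/S (NP-40 vs SDS abundance): HeLa Kyoto cells arrested at G1/S by double thymidine block, proteins quantified by TMT10plex mass spectrometry in mild NP-40 versus SDS extracts, three biological replicates.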
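Throughout, for thermal stability score vs G1/S (z-score of summed log2 fold changes over temperatures): synchronized HeLa Kyoto cells, proteins quantified by TMT10plex mass spectrometry, three biological replicates, mitosis taken 0.5 h after nocodazole release, G1/S directly after double thymidine block.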

On to “MAQRGGARRPRGDRERLGSRLRALRPGREPRQSEPPAQRGPPPSGRPPARSTASGHDRPTRGAAAGARRPRMKKKTRRRSTRSEELTRSEELTLSEEATWSEEATQSEEATQGEEMNRSQEVTRDEESTRSEEVTREEMAAAGLTVTVTHSNEKHDLHVTSQQGSSEPVVQDLAQVVEEVIGVPQSFQKLIFKGKSLKEMETPLSALGIQDGCRVMLIGKKNSPQEEVELKKLKHLEKSVEKIADQLEELNKELTGIQQGFLPKDLQAEALCKLDRRVKATIEQFMKILEEIDTLILPENFKDSRLKRKGLVKKVQAFLAECDTVEQNICQETERLQSTNFALAE [BAG1]”, for which the figures for the melting temperature in the data set on HeLa Kyoto [1] (cell cycle stage: G1/S) and in the data set with HeLa Kyoto [1] (cell cycle stage: mitosis) were 54.3 °C and 53.7 °C, respectively. In the data set on HeLa Kyoto [2], the “solubility in G1/S (log2)” value worked out at 0.0346. Besides, the thermal stability score is 0.492 in the data set with HeLa Kyoto [3] (setting [5]) and -2.14 in the data set on HeLa Kyoto [3] (cell cycle stage: mitosis). In the data set on HeLa Kyoto [4], the “solubility change mitosis (log2)” value amounted to 0.0327.
For “MAQRHSDSSLEEKLLGHRFHSELRLDAGGNPASGLPMVRGSPRVRDDAAFQPQVPAPPQPRPPGHEEPWPIVLSTESPAALKLGTQQLIPKSLAVASKAKTPARHQSFGAAVLSREAARRDPKLLPAPSFSLDDMDVDKDPGGMLRRNLRNQSYRAAMKGLGKPGGQGDAIQLSPKLQALAEEPSQPHTRSPAKNKKTLGRKRGHKGSFKDDPQLYQEIQERGLNTSQESDDDILDESSSPEGTQKVDATIVVKSYRPAQVTWSQLPEVVELGILDQLSTEERKRQEAMFEILTSEFSYQHSLSILVEEFLQSKELRATVTQMEHHHLFSNILDVLGASQRFFEDLEQRHKAQVLVEDISDILEEHAEKHFHPYIAYCSNEVYQQRTLQKLISSNAAFREALREIERRPACGGLPMLSFLILPMQRVTRLPLLMDTLCLKTQGHSERYKAASRALKAISKLVRQCNEGAHRMERMEQMYTLHTQLDFSKVKSLPLISASRWLLKRGELFLVEETGLFRKIASRPTCYLFLFNDVLVVTKKKSEESYMVQDYAQMNHIQVEKIEPSELPLPGGGNRSSSVPHPFQVTLLRNSEGRQEQLLLSSDSASDRARWIVALTHSERQWQGLSSKGDLPQVEITKAFFAKQADEVTLQQADVVLVLQQEDGWLYGERLRDGETGWFPEDFARFITSRVAVEGNVRRMERLRVETDV [ARHGEF16]”, the melting temperature with HeLa Kyoto [1] (cell cycle stage: G1/S) worked out at 49.4 °C; in the data set with HeLa Kyoto [1] (cell cycle stage: mitosis), 49.5 °C. Besides, in the data set on HeLa Kyoto [2], the “solubility in G1/S (log2)” value was -0.0605. Besides, the thermal stability score with HeLa Kyoto [3] (setting [5]) stood at 0.0138; with HeLa Kyoto [3] (cell cycle stage: mitosis) it was 0.41. The “solubility change mitosis (log2)” value in the data set with HeLa Kyoto [4] is -0.0697.
In turn, “MAQRMTTQLLLLLVWVAVVGEAQTRIAWARTELLNVCMNAKHHKEKPGPEDKLHEQCRPWRKNACCSTNTSQEAHKDVSYLYRFNWNHCGEMAPACKRHFIQDTCLYECSPNLGPWIQQVDQSWRKERVLNVPLCKEDCEQWWEDCRTSYTCKSNWHKGWNWTSGFNKCAVGAACQPFHFYFPTPTVLCNEIWTHSYKVSNYSRGSGRCIQMWFDPAQGNPNEEVARFYAAAMSGAGPWAAWPFLLSLALMLLWLLS [FOLR1]” came in with a melting temperature in the data set with HeLa Kyoto [1] (cell cycle stage: G1/S) of 58.8 °C. In the data set with HeLa Kyoto [2], the “solubility in G1/S (log2)” value is -0.325. The thermal stability score with HeLa Kyoto [3] (setting [5]) was -1.06; with HeLa Kyoto [3] (cell cycle stage: mitosis) it was -1.43. Moreover, in the data set on HeLa Kyoto [4], the “solubility change mitosis (log2)” value is 0.0281.
Consider “MAQSLRLHFAARRSNTYPLSETSGDDLDSHVHMCFKRPTRISTSNVVQMKLTPRQTALAPLIKENVQSQERSSVPSSENVNKKSSCLQISLQPTRYSGYLQSSNVLADSDDASFTCILKDGIYSSAVVDNELNAVNDGHLVSSPAICSGSLSNFSTSDNGSYSSNGSDFGSCASITSGGSYTNSVISDSSSYTFPPSDDTFLGGNLPSDSTSNRSVPNRNTTPCEIFSRSTSTDPFVQDDLEHGLEIMKLPVSRNTKIPLKRYSSLVIFPRSPSTTRPTSPTSLCTLLSKGSYQTSHQFIISPSEIAHNEDGTSAKGFLSTAVNGLRLSKTICTPGEVRDIRPLHRKGSLQKKIVLSNNTPRQTVCEKSSEGYSCVSVHFTQRKAATLDCETTNGDCKPEMSEIKLNSDSEYIKLMHRTSACLPSSQNVDCQININGELERPHSQMNKNHGILRRSISLGGAYPNISCLSSLKHNCSKGGPSQLLIKFASGNEGKVDNLSRDSNRDCTNELSNSCKTRDDFLGQVDVPLYPLPTENPRLERPYTFKDFVLHPRSHKSRVKGYLRLKMTYLPKTSGSEDDNAEQAEELEPGWVVLDQPDAACHLQQQQEPSPLPPGWEERQDILGRTYYVNHESRRTQWKRPTPQDNLTDAENGNIQLQAQRAFTTRRQISEETESVDNRESSENWEIIREDEATMYSNQAFPSPPPSSNLDVPTHLAEELNARLTIFGNSAVSQPASSSNHSSRRGSLQAYTFEEQPTLPVLLPTSSGLPPGWEEKQDERGRSYYVDHNSRTTTWTKPTVQATVETSQLTSSQSSAGPQSQASTSDSGQQVTQPSEIEQGFLPKGWEVRHAPNGRPFFIDHNTKTTTWEDPRLKIPAHLRGKTSLDTSNDLGPLPPGWEERTHTDGRIFYINHNIKRTQWEDPRLENVAITGPAVPYSRDYKRKYEFFRRKLKKQNDIPNKFEMKLRRATVLEDSYRRIMGVKRADFLKARLWIEFDGEKGLDYGGVAREWFFLISKEMFNPYYGLFEYSATDNYTLQINPNSGLCNEDHLSYFKFIGRVAGMAVYHGKLLDGFFIRPFYKMMLHKPITLHDMESVDSEYYNSLRWILENDPTELDLRFIIDEELFGQTHQHELKNGGSEIVVTNKNKKEYIYLVIQWRFVNRIQKQMAAFKEGFFELIPQDLIKIFDENELELLMCGLGDVDVNDWREHTKYKNGYSANHQVIQWFWKAVLMMDSEKRIRLLQFVTGTSRVPMNGFAELYGSNGPQSFTVEQWGTPEKLPRAHTCFNRLDLPPYESFEELWDKLQMAIENTQGFDGVD [NEDD4]”, for which the melting temperature stood at 49.3 °C in the data set with HeLa Kyoto [1] (cell cycle stage: G1/S) and 49.7 °C in the data set on HeLa Kyoto [1] (cell cycle stage: mitosis). In addition, the “solubility in G1/S (log2)” value in the data set on HeLa Kyoto [2] is -0.127. The thermal stability score with HeLa Kyoto [3] (setting [5]) is -0.41; with HeLa Kyoto [3] (cell cycle stage: mitosis), 0.545. Also, the “solubility change mitosis (log2)” value in the data set on HeLa Kyoto [4] is -0.163.
For the sequence “MAQTLQMEIPNFGNSILECLNEQRLQGLYCDVSVVVKGHAFKAHRAVLAASSSYFRDLFNNSRSAVVELPAAVQPQSFQQILSFCYTGRLSMNVGDQFLLMYTAGFLQIQEIMEKGTEFFLKVSSPSCDSQGLHAEEAPSSEPQSPVAQTSGWPACSTPLPLVSRVKTEQQESDSVQCMPVAKRLWDSGQKEAGGGGNGSRKMAKFSTPDLAANRPHQPPPPQQAPVVAAAQPAVAAGAGQPAGGVAAAGGVVSGPSTSERTSPGTSSAYTSDSPGSYHNEEDEEEDGGEEGMDEQYRQICNMYTMYSMMNVGQTAEKVEALPEQVAPESRNRIRVRQDLASLPAELINQIGNRCHPKLYDEGDPSEKLELVTGTNVYITRAQLMNCHVSAGTRHKVLLRRLLASFFDRNTLANSCGTGIRSSTNDPRRKPLDSRVLHAVKYYCQNFAPNFKESEMNAIAADMCTNARRVVRKSWMPKVKVLKAEDDAYTTFISETGKIEPDMMGVEHGFETASHEGEAGPSAEALQ [NACC1]”, the melting temperature in the data set on HeLa Kyoto [1] (cell cycle stage: G1/S) is 47.6 °C; in the data set on HeLa Kyoto [1] (cell cycle stage: mitosis), 49.4 °C. In addition, in the data set with HeLa Kyoto [2], the “solubility in G1/S (log2)” value turned out to be 0.142. Also, the thermal stability score in the data set on HeLa Kyoto [3] (setting [5]) was determined as 3.55; in the data set on HeLa Kyoto [3] (cell cycle stage: mitosis), 6.42. The “solubility change mitosis (log2)” value in the data set on HeLa Kyoto [4] is -0.176.
